Our source for the protease stability score values is the NTF2 design screens of Basanta et al. (2020).

This data set is described as follows: protease stability score; higher = more stable; yeast display proteolysis, trypsin and chymotrypsin.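 Also: relative to predicted unfolded state with 0 unfolded-like and 1 meaning tenfold more protease.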
Regarding “DELHNLLEHALKIVIELWRTGDWRLIDKMLDPNTLLNFNGKNIHGREEIDRLRKELGIEFFAIEDQDYRRMHIQGDKIELDGDSDIIINGQRRRTHVHLHLEKINGRWVDRRIIFL”, the protease stability score stood at 0.913.

The sequence “DELHRDVTEAIKLILHAERTGNWRLMMDLMDPHVKLTIGDKEVHGMEAVFNELRTELEELGLDRFESHVRLRDFRIYDGRVDFHVELIFDFNGREIRHDTRFIVEKVDGRWFIKHIQYG” showed a protease stability score of 2.13. Then “DELIEEARRFHEKLVDNLETGNEEEFEREIDPNTRVDFNGVEIHGWKHFSKMFKEIRFHQVRLHDIRAVGNKVDSDEDVDGNYNGVRVRHRIHVVARKVNGRWLMESVIFR”, with 1.24. For the sequence “DELIKLAHEFLRIMYDSLRTGDEDRVSELLDPHARLDINGKKRHGRKAILDTYREIWFHDIKIKDVDVIDGVIEIDTRLDLEINGVRFEMKTIIFLTKFNGRWVIEEIRIR”, the protease stability score is 1.21. As to “DELKDIMREVAEIIIRLEHTGDWRVFRKMADPNVRIDIGDFHIIGREEWRHWIEELRERIKNLKVEIRITHIESQGDKVHSDTRLIIRFDGVTEERTQHLHFVIVDGRVTSVRYENR”, the protease stability score turned out to be 0.009.

“DELKEILLRIIEKMLHALLTGNFEELLKNVDPRTRNDINGVDAVGRENIKRVWEEILRRIDHWEEVRIEDFRVQGDKVHIDGRLIMRVDGRREDTTTHLHIIVFNGRVESIKFEIR”: the protease stability score came out at 1.57. Then “DELKEISDEIVLMFDRAIRTGDEHTMKKLLDPNYLLRVDGVDIVGRERFTEIIRQFDHVDYESHRIRDVSIQGDKIDVDSETDIHFTYNGKRERRTYRVRIIILKINGRWRIHEVHLH”, with 1.77; and “DELKKILDEYIEDHLRAVHTGDEDRVKHQIDPHVRIDVNGVELIGMEDWKKFLDILGVDNIQVDRYEIKDYHLVGDKATLHEHRDVKYNGVRSRHNINFVVQKIDGKWYFTEYQTE”, with 0.399; and “DELKKMLKEMEEFHTDLLETGDFEKIIRNVDPHVRIDVNGQEHHGWHEAVEFIREFIERFKNVKIIIEHVEIQGDKLILHMEFRQGEFHSRLIVYSLKVNGRWILKDMEIR”, with 1.67. Then “DELKRDADHAVELLHRVIHTGDEDTFVELIDPHVRLDFNGRELIGWEEVRKLMRDLGWEQIHYEIEDIKVYNGQVEIHSRVNINGRTHQSHYHIEKVNGRWILRHVEYE”, with 1.37; and “DELKRYLEELVRRVLQATLTGDEDHFSHLADPTTRLILEDEDHHVENHGREDVRRFMEEHFRRVDHWHISLRRLHPVGNKMHSTGTLRVTFDGVKVDVEVRNHFVMVDGRIKFWKIEFI”, with 1.23; and “DELKSLSRKATEDIVELIITGDEKMLREYMDPNVRVDINGQEIHGREIFFEYIRHLLEHMGVDHLKLDRMEVRDINGQLYIHFRGTTVFNGRTYDEELIWVIVKIDGRWYIEQIEIRFE”, with 1.3. On to “DELKTDFENAIRLYEHATKTGDEHEIRKLLDPHVRVDINGREHHGMEHYSDLLHEFLKRLGADHIQFEFKDSHLQGNKLHLHGIIHVHVGDKTHTIDSSVIYEKVDGRWIISSVWYR”, for which the protease stability score came to 1.01. Then “DELNEITHKFMHEFLRAELTGDWEELHRMLDPHARYIAHIDGREIHFIGRERVLKFMEEWLRRVKNVRIQINDHRVQGDYNHIDGKLKINGKTHDVHIELVMVDGRNHEIHVFIH”, with 1.61. On to “DELNELNKEAFETYHQISETGNETMHSRNADPHVRIDINGVEYHGWEHAERLWKNLGVKHIQFHDIEIQGNKLIITVIVEVNGQETRSEVILLKINGRWLIHSLSFR”, for which the protease stability score was found to be 1.06. Then “DELQHELERFLEEESRMLKTGDEKRLLELADPDVRVHIDGVDMVGWEALETMWRILKERLGADHVEDVKIRHVDLQGDKADMDVEFDMIQGDKKHYLRSRLIVTKINGRWLLRYVIIK”, with 1.75; and “DELQKMAKHWIELMIRAQETGDEEELKKYLDPDVRIDVDGRELHGREKADELLKEIRIHEFEIKHMRFQGDKLHLHGTDNQRQGNYEYHVEVTYHLIKINGRWSLREIRVE”, with 0.637; and “DELQRDSEEAFELVLRVLRTGDEETMSRLADPHTRINVHQGDKIVEFHGREDFERFMHDLLRKFPNMRIDAERVHTFNGQVVINHRLHVNGQERDLHIFSLKIDGRWHLKHVELKLK”, with 1.73.

For the sequence “DELQRDSKQAVKLWSESVLTGDERVLKEMADPDPRVEVGEYSSHGMHEVKRLLREMRIEVEDFKDENVRVYGEKLVVDGILHIRIHINGRDEHIDRRAILIMVKVDGRWYFKSMVYR”, the protease stability score came out at 0.781.

In turn, “DELRDEVRRWLTKLIEDHKTGDEKAMMELADPNVKVVIDGKELVGMELYEHFVRYWREHIRLTDLKIHDMRIQGDKVHAETRVEGNFNGKYRVIETRVLIVKINGRWFLKEIEID” registered a protease stability score of 2.02. Turning to “DELREDSERAEEWLITASETGNEEDILKLADPNTRIDINGKDLHGRESLEHFIRRYKGVTVRIRHRDIINGKLHLDTELRIDGVTLRTELIITKVNGRWYLEEQIVR”, the protease stability score was determined as 1.07. “DELREESEHARQLYWRSIFTGDEDHFEKLLDPNARVYVNGKNLHGREDVLRVFHELRFRRLHWHDFDDQGDKLFFITKTVVDFNGVKMEQRTELYLRKVDGRWHVEEIRFE” displayed a protease stability score of 0.997. The sequence “DELREHVEEVMRWFFERIKTGDEENFHKMADPDARLQVGDKNVHGRENVLKEWRRHREEIRIEDMKIRELHVIGNYAYLDIHVDITYNGKRKETRVELRVVVIDGRIEHIEIRIN” had a protease stability score of 0.439. Then “DELRKEAEEHAQHLLDLFDTGDWDRISELADPNTLVIIDINGVHINNVGWEEIRKLWEITRHHLRIEERRVESSRTFENRVELDVKDHIKVGNKKINLDSHITIDVVNGQMKRVDFQLR”, with 2.04; and “DELRKESEDLVRILIEIFHTGDEDVFKRMADPHVRLIAENRIVVGRDLVSRFFRHLLEKYPNVTDHVDVRRIILVGDWLHIDLRIDIEIGDKRHEHDVKIHVRKIDGRWVITEIHVK”, with 1.85. Regarding “DELRTHAKKMILILFHHLLTGDEEWLHRFMDPSTRRDVGDKELHGMEQITHDIVKEIFLRGAEIHITIRTFRFQGNYLDANIEIKIIVNGQEIHFEVLIHIVKVDGVWLVRSMRFH”, the protease stability score amounted to 1.43. Then “DELTDSREHALNLYIHKLETGDWNLHERFLDPNVRVDYDGVDLHGREIYRQWETERLEIAGIKHLELKRKSVQGEKIRIDGIEKFDGKEVKTHVIILKVNGKWILETVIFK”, with 0.171; and “DELTEDLKHAMTIFLHMLITGDEHWIHDLLDPNTRLEFEGREFVGREDAREEWRKISEEIRVHHVEMKDIHVFDGVIIVDGRMDGEVNGRRTHLNVFFVFHKVNGKWLMRQHSLR”, with 1.42.

For the sequence “DELTEELRHLAHLMIVSLLTGDPSVFQRYLDPNTKSVVNGKNIHGMEEFDKIILEELKRVDHLEIELKRIDAFDGVTHIDGKLKLRIGDKTVETRMEVNIFTINGKVKSIEISRQ”, the protease stability score is 1.33. In turn, “DELTEEVRKFLERLWRATHTGNEKEFWELVDPNVRDDINGRILHGRETVIRIITELGFKVRHNEFRDERVVGEYATVHGNFNVDINGKEHEVDVEIIVEKVNGVWTLKYRHFR” returned a protease stability score of 1.54. Consider “DELTEILKHAVERLLRHIVTGDEDSVSELADPNVKVDFNGQEYHGMHFFSHLASRFKGLRLELTELHSVGNYMDTRMHVEVNGKNIELILHSKKVNGKWSLERSEFH”, for which the protease stability score was found to be 1.26. Sequence “DELTEIMLRIAQLILTILLTGNEDHFKRLFDPNVRLTINGVDFVGREWIVHFMRNLTDELRIKDNKIEDIRVQGDKAKVDSRLDGEVDGQHMELRTSYVLIKIDGRWSVHSVEFR” registered a protease stability score of 1.26. Then “DELTELAEKAKELFVRIEKTGDEKTWSEYADPDVRIHVNGVDLHGREESLKWMHDLRERIKNMRVEFKDFKIEIIGNKVIIFIDGRLRYDGRELELESVYYVSKFNGRWRVESEELRIR”, with 1.37; and “DELTESVREFIEHFIRALETGDWHILHRLLDPHVKLNVNGVEFHGREIIVEFLREIRIHSFIVHHVRIQGDWIDIDGETDGVINGRRIRTRTRIHLHKIDGRWQIKSESVI”, with 2.09; and “DELTEVADYLLEHFIRNLITGNEERVRHLADPHVRVIEVYGDKVEMRHGRDSMLKWMHDWRHHIRLKHYQIEHIEVQGEKSVVHGRLRGNIDGRDIDTRTHIEVVHIDGRFTSMRYEVR”, with 0.555.

Turning to “DELTHAVTRFHKETMDAVRTGNEEWHSRLLDPNTRIHIGEFNNVGMEQVIEILRRVKNLRIHHVHLDHIDFYDGRADIHGTVHGIWNGRHRKVKHEHFLLKIDGVWYLEEIRVE”, the protease stability score was determined as 0.371. “DELTKEFEHFLEMLRRAQETGDEETVAKLMDPDVRIIIDGRNIIGREELTRFVSEWREEITVNEKHLKVINGRIHVDGEYHSRIRFDGREQRYSTRVHIVTIKVDGQWLLRTVHIG” gave a protease stability score of 1.05. Then “DELTNEHERYLHFLWEMIKTGDEENLENLVDPHARLEFENREFHGREDVRKWLVEIRFHRVHLRRMEVQGNKVILDTELDGEFNGQRVRHTTKTHALKVNGQWLLHELIIK”, with 1.25; and “DELTRDFEEATELLIRILLTGDEDIFREMADPNVRLHYGDKTFIGREEFVKWLHQWRIEDIKIDHVDLQGDYAIVHGRIRTVIGDKEHKVDTKWIIRKYNGKWDIREVHIR”, with 2.07; and “DELTREMDRVHEELVRSLTTGDEDRLASMMDPNARLRIDGVNFIGRDKIREFWHQIDHSSMHLHHIHVYGDKIRLEGELILNFNGVEHNHETLMIIKKVDGKWVIESIHLK”, with 1.79. In turn, “DELTRQMRTFAERWIHAERTGDEEILRELMDPHAKLDVKQGDKRHDWHGRERITEFIRRMGIKHIQVDHVELQGEKIHMHVTMYVDGQVLDSTLKLWVVDGVTKSVEIEFK” returned a protease stability score of 1.2. In turn, “DELTTLAREFLRLIKEVLETGDERTMHELADPNYRIRIGDKLVHGWEQQSELIIRIRTELGMTVKDSRIEDSHVQGDKLVVRVRLDMIQGDKKDSVDRIVRVDKINGKWIMSEIELI” returned a protease stability score of 1.49. Then “DELWELAFFIMKILLHLHLTGDEEMWSSYADPNVRFTLRVGDKEVKRHGMEDVEKFQTELEREIRVDHFDERRTHYYNGRARVDGHIDGLVNGRPVHFRTELHVHTIDGVVREVEIIIE”, with -0.045; and “DEMDEHARDLFELLLRIWLTGDEHELRELADPHVRIHVGDKNHVGMDKFAHEFIRHVQERGVRIEIRIRDHHAINGVSHSDGEIVLNYDGREYRMDTKIIMVIYNGKVKELRFHIR”, with 1.39. Then “DEMDEISKEAWRMLKEITRTGDEDLMHKNVDPNARVIYGDKVVHGRERVTKILVEMRIDHEEHRDSRVVGNKVELDVHFDGEFDGRRFRTDVHWVIVKINGQWRIKEHVIL”, with 1.22. Consider “DEMDELAERIYETWVKRHLTGDEKVIEELMDPNVRIDIVVGDKKIHLIGRETASSFARRWFDHLRIDDMRMHSVETINGQIHSEVEVHRRIGDKERFILTRIEMHVINGKIHSIRLEIE”, for which the protease stability score amounted to 1.1.

In turn, “DEMDEVMERWAREYISWEKTGDEEKAKKYVDPNVKTHIDFNGRHVENIGMESEFNFFRELGITIHDIKIREIELQGDKVRIKGRIVFQIGDFEIIIERTVHIVVINGQDRHSEFRFE” came in with a protease stability score of 0.194.
